# Measurements: paper PMC7145319 (2019)
# T1: MOG35-55 peptide on I-Ab (mouse)
# T1 peptide: GWYRSPFSRVV
# Target: T1, MOG35-55 peptide on I-Ab
# Assay: activation reporter or marker
row,Binder,binding result
1,EAE2-CD4 (TCR) alpha TRAV12-1 TRAJ23 CDR3: CALRNYNQGKLIF beta TRBV16 TRBJ1-4 CDR3: CASSLDQGWDERLFF,recognises
2,EAE3-CD4 (TCR) alpha TRAV14D-1 TRAJ43 CDR3: CAASGANNNNAPRF beta TRBV3 TRBJ2-5 CDR3: CASSLEGHQDTQYF,recognises
